Results reported in the supplement of paper PMC9112550, “Optimization of the antimicrobial peptide Bac7 by deep mutational scanning” (BMC Biology, 2022).

System: Escherichia coli TOP10
Assay: shrunken log2 fold change of peptide-encoding DNA abundance (4.5 h post-induction vs induction); higher = less antimicrobial activity (less host growth inhibition)
Conditions: time post-induction: 4.5 h; library: site-saturation at positions 5, 18, 19, 20
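Also: peptides expressed intracellularly from a pBAD plasmid library in pooled LB shake-flask culture, induced with 0.3% L-arabinose, DNA abundance read by NGS, three biological replicates, DESeq2 with apeglm shrinkage.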

Sequence	shrunken log2 fold change
RRIRNRPPRLPRPRPRPNVFPRP	-0.43
RRIRGRPPRLPRPRPRPMWFPRP	0.185
RRIRWRPPRLPRPRPRPHFLPRP	1.46
RRIRRRPPRLPRPRPRPCHLPRP	-0.0646
RRIRNRPPRLPRPRPRPLIIPRP	-0.433
RRIRERPPRLPRPRPRPLIDPRP	-0.352
RRIRERPPRLPRPRPRPSDNPRP	-1.25
RRIRGRPPRLPRPRPRPIWKPRP	0.155
RRIRYRPPRLPRPRPRPYIWPRP	-0.29
RRIRERPPRLPRPRPRPWDNPRP	-0.021
RRIRHRPPRLPRPRPRPLAAPRP	0.325
RRIRVRPPRLPRPRPRPTHCPRP	0.233
RRIRNRPPRLPRPRPRPNEMPRP	-0.00174
RRIRIRPPRLPRPRPRPITHPRP	-0.329
RRIRLRPPRLPRPRPRPDQHPRP	-0.0962
RRIRCRPPRLPRPRPRPSWNPRP	-0.68
RRIRRRPPRLPRPRPRPHNRPRP	0.0584
RRIRARPPRLPRPRPRPHYPPRP	-1.36
RRIRYRPPRLPRPRPRPCMFPRP	-0.981
RRIRFRPPRLPRPRPRPFFFPRP	0.121
RRIRQRPPRLPRPRPRPVWVPRP	0.0799
RRIRPRPPRLPRPRPRPFVSPRP	-0.443
RRIRFRPPRLPRPRPRPEQMPRP	0.19
RRIRDRPPRLPRPRPRPYDAPRP	-0.00235
RRIRDRPPRLPRPRPRPRQQPRP	0.388

Sequence	shrunken log2 fold change
RRIRLRPPRLPRPRPRPKARPRP	-0.00543
RRIRPRPPRLPRPRPRPVMMPRP	3.4
RRIRLRPPRLPRPRPRPMEYPRP	0.015
RRIRFRPPRLPRPRPRPEDCPRP	0.121
RRIRFRPPRLPRPRPRPDGKPRP	-0.3
RRIRVRPPRLPRPRPRPKPRPRP	0.638
RRIRSRPPRLPRPRPRPWGEPRP	0.00882
RRIRPRPPRLPRPRPRPEGNPRP	0.189
RRIRIRPPRLPRPRPRPDWDPRP	-0.318
RRIRSRPPRLPRPRPRPIQPPRP	0.117
RRIRHRPPRLPRPRPRPEWFPRP	-0.0468
RRIRHRPPRLPRPRPRPDDPPRP	-0.0026
RRIRTRPPRLPRPRPRPGNGPRP	-0.222
RRIRKRPPRLPRPRPRPFSEPRP	-0.0185
RRIRWRPPRLPRPRPRPMPWPRP	0.0161
RRIRLRPPRLPRPRPRPDGAPRP	0.0651
RRIRNRPPRLPRPRPRPPSEPRP	-0.147
RRIRYRPPRLPRPRPRPCWPPRP	0.0499
RRIRVRPPRLPRPRPRPRIMPRP	-0.601
RRIRQRPPRLPRPRPRPVPYPRP	-0.363
RRIRWRPPRLPRPRPRPGRDPRP	0.122
RRIRLRPPRLPRPRPRPVKQPRP	-0.0196
RRIRDRPPRLPRPRPRPLAHPRP	0.151
RRIRGRPPRLPRPRPRPLAGPRP	0.887
RRIRWRPPRLPRPRPRPQALPRP	0.113

Sequence	shrunken log2 fold change
RRIRKRPPRLPRPRPRPVKQPRP	0.0206
RRIRDRPPRLPRPRPRPKAPPRP	0.341
RRIRERPPRLPRPRPRPQVFPRP	-0.0552
RRIRGRPPRLPRPRPRPVAMPRP	1.02
RRIRYRPPRLPRPRPRPEADPRP	0.123
RRIRIRPPRLPRPRPRPTMSPRP	-0.124
RRIRTRPPRLPRPRPRPGQFPRP	-0.182
RRIRARPPRLPRPRPRPWFIPRP	-0.502
RRIRKRPPRLPRPRPRPNFTPRP	0.156
RRIRWRPPRLPRPRPRPCRDPRP	-0.0737
RRIRRRPPRLPRPRPRPEDAPRP	0.582
RRIRYRPPRLPRPRPRPQSTPRP	-1.2
RRIRGRPPRLPRPRPRPDYDPRP	0.157
RRIRCRPPRLPRPRPRPRRVPRP	0.342
RRIRYRPPRLPRPRPRPPIDPRP	-0.35
RRIRSRPPRLPRPRPRPRFWPRP	0.269
RRIRFRPPRLPRPRPRPTMSPRP	-0.236
RRIRHRPPRLPRPRPRPTCLPRP	-0.0796
RRIRLRPPRLPRPRPRPAHMPRP	-0.0737
RRIRCRPPRLPRPRPRPRGWPRP	0.605
RRIRCRPPRLPRPRPRPAVEPRP	-0.0939
RRIRMRPPRLPRPRPRPSNIPRP	-0.227
RRIRDRPPRLPRPRPRPCYFPRP	-0.31
RRIRHRPPRLPRPRPRPHHHPRP	-1
RRIRARPPRLPRPRPRPFGVPRP	0.165

Sequence	shrunken log2 fold change
RRIRKRPPRLPRPRPRPIYQPRP	-0.0246
RRIRIRPPRLPRPRPRPTGTPRP	-0.109
RRIRFRPPRLPRPRPRPFAEPRP	-0.348
RRIRYRPPRLPRPRPRPHSAPRP	-0.121
RRIRVRPPRLPRPRPRPGEDPRP	0.0912
RRIRERPPRLPRPRPRPYPTPRP	-0.397
RRIRQRPPRLPRPRPRPGAPPRP	0.307
RRIRFRPPRLPRPRPRPLHNPRP	-0.398
RRIRHRPPRLPRPRPRPFDEPRP	-0.173
RRIRMRPPRLPRPRPRPPETPRP	0.807
RRIRRRPPRLPRPRPRPHQFPRP	-0.183
RRIRCRPPRLPRPRPRPSTTPRP	-0.257
RRIRTRPPRLPRPRPRPALVPRP	0.0324
RRIRFRPPRLPRPRPRPIFFPRP	-0.137
RRIRYRPPRLPRPRPRPKWTPRP	-0.298
RRIRTRPPRLPRPRPRPLTKPRP	0.0652
RRIRPRPPRLPRPRPRPCYYPRP	-0.436
RRIRKRPPRLPRPRPRPFIHPRP	-0.0282
RRIRQRPPRLPRPRPRPMGTPRP	-0.00257
RRIRFRPPRLPRPRPRPHDDPRP	-0.531
RRIRKRPPRLPRPRPRPVVDPRP	-0.0213
RRIRLRPPRLPRPRPRPDVTPRP	-0.0876
RRIRMRPPRLPRPRPRPNGLPRP	0.062
RRIRIRPPRLPRPRPRPTFFPRP	-0.292
RRIRWRPPRLPRPRPRPRTWPRP	0.292

Sequence	shrunken log2 fold change
RRIRSRPPRLPRPRPRPLIWPRP	0.312
RRIRQRPPRLPRPRPRPANIPRP	-0.275
RRIRTRPPRLPRPRPRPLMIPRP	-0.0131
RRIRGRPPRLPRPRPRPSWNPRP	0.285
RRIRQRPPRLPRPRPRPKYDPRP	-0.165
RRIRMRPPRLPRPRPRPNWKPRP	-0.0351
RRIRCRPPRLPRPRPRPHPTPRP	-0.0382
RRIRPRPPRLPRPRPRPIYFPRP	-0.205
RRIRMRPPRLPRPRPRPNNYPRP	0.0147
RRIRNRPPRLPRPRPRPFCQPRP	-0.677
RRIRCRPPRLPRPRPRPWCCPRP	-0.649
RRIRKRPPRLPRPRPRPQDLPRP	-0.000826
RRIRNRPPRLPRPRPRPFLHPRP	-0.351
RRIRWRPPRLPRPRPRPSDHPRP	-0.474
RRIRPRPPRLPRPRPRPKTGPRP	0.186
RRIRCRPPRLPRPRPRPVRNPRP	0.0515
RRIRQRPPRLPRPRPRPYDCPRP	-0.195
RRIRERPPRLPRPRPRPLENPRP	0.0225
RRIRFRPPRLPRPRPRPWYWPRP	-0.34
RRIRCRPPRLPRPRPRPYLMPRP	-0.916
RRIRNRPPRLPRPRPRPLIFPRP	1.39
RRIRWRPPRLPRPRPRPRGDPRP	1.03
RRIRNRPPRLPRPRPRPRNRPRP	-0.000801
RRIRHRPPRLPRPRPRPSVVPRP	0.118
RRIRERPPRLPRPRPRPYVEPRP	-0.534

Sequence	shrunken log2 fold change
RRIRGRPPRLPRPRPRPPDRPRP	0.564
RRIRDRPPRLPRPRPRPMANPRP	-0.0338
RRIRSRPPRLPRPRPRPKFSPRP	0.0488
RRIRPRPPRLPRPRPRPHHSPRP	-0.454
RRIRSRPPRLPRPRPRPAIGPRP	-0.0608
RRIRDRPPRLPRPRPRPNRPPRP	0.0951
RRIRYRPPRLPRPRPRPGKKPRP	-0.00101
RRIRTRPPRLPRPRPRPGRWPRP	0.393
RRIRDRPPRLPRPRPRPDLVPRP	1.16
RRIRFRPPRLPRPRPRPYWVPRP	-0.683
RRIRGRPPRLPRPRPRPRKQPRP	0.875
RRIRIRPPRLPRPRPRPGVSPRP	-0.351
RRIRSRPPRLPRPRPRPWHQPRP	-0.25
RRIRQRPPRLPRPRPRPRYVPRP	-0.215
RRIRRRPPRLPRPRPRPDQCPRP	-0.00402
RRIRPRPPRLPRPRPRPCGSPRP	-0.023
RRIRDRPPRLPRPRPRPNMCPRP	-0.0431
RRIRWRPPRLPRPRPRPYDWPRP	-0.0803
RRIRFRPPRLPRPRPRPFHAPRP	-0.393
RRIRSRPPRLPRPRPRPRQIPRP	-0.066
RRIRRRPPRLPRPRPRPWSQPRP	-0.132
RRIRTRPPRLPRPRPRPGYNPRP	-0.957
RRIRDRPPRLPRPRPRPIGCPRP	0.242
RRIRRRPPRLPRPRPRPGMEPRP	0.0306
RRIRIRPPRLPRPRPRPKTQPRP	-0.0269
